Laboratory results from patent US20190083585.

B1: Kumamolisin-As N291D, Q361D (protein)
chain: AAPTAYTPLDVAQAYQFPEGLDGQGQCIAIIELGGGYDEASLAQYFASLGVPAPQVVSVSVDGASNQPTGDPSGPDGEVELDIEVAGALAPGAKFAVYFAPDTDAGFLDAITTAIHDPTLKPSVVSISWGGPEDSWTSAAIAAMNRAFLDAAALGVTVLAAAGDSGSTDGEDDGLYHVDFPAASPYVLACGGTRLVASGGRIAQETVWNDGPDGGATGGGVSRIFPLPAWQEHANVPPSANPGASSGRGVPDLAGNADPATGYEVVIDGEATVIGGTSAVAPLFAALVARINQKLGKAVGYLNPTLYQLPADVFHDITEGNNDIANRAQIYQAGPGWDPCTGLGSPIGVRLLQALLPSASQPQPGSTENLYFQSGALEHHHHHH
B2: Kumamolisin-As S354N, D358G, D368H (protein)
chain: AAPTAYTPLDVAQAYQFPEGLDGQGQCIAIIELGGGYDEASLAQYFASLGVPAPQVVSVSVDGASNQPTGDPSGPDGEVELDIEVAGALAPGAKFAVYFAPNTDAGFLDAITTAIHDPTLKPSVVSISWGGPEDSWTSAAIAAMNRAFLDAAALGVTVLAAAGDNGSTGGEQDGLYHVHFPAASPYVLACGGTRLVASGGRIAQETVWNDGPDGGATGGGVSRIFPLPAWQEHANVPPSANPGASSGRGVPDLAGNADPATGYEVVIDGEATVIGGTSAVAPLFAALVARINQKLGKAVGYLNPTLYQLPADVFHDITEGNNDIANRAQIYQAGPGWDPCTGLGSPIGVRLLQALLPSASQPQPGSTENLYFQSGALEHHHHHH
B3: Kumamolisin-As N291D (protein)
chain: AAPTAYTPLDVAQAYQFPEGLDGQGQCIAIIELGGGYDEASLAQYFASLGVPAPQVVSVSVDGASNQPTGDPSGPDGEVELDIEVAGALAPGAKFAVYFAPDTDAGFLDAITTAIHDPTLKPSVVSISWGGPEDSWTSAAIAAMNRAFLDAAALGVTVLAAAGDSGSTDGEQDGLYHVDFPAASPYVLACGGTRLVASGGRIAQETVWNDGPDGGATGGGVSRIFPLPAWQEHANVPPSANPGASSGRGVPDLAGNADPATGYEVVIDGEATVIGGTSAVAPLFAALVARINQKLGKAVGYLNPTLYQLPADVFHDITEGNNDIANRAQIYQAGPGWDPCTGLGSPIGVRLLQALLPSASQPQPGSTENLYFQSGALEHHHHHH
B4: Kumamolisin-As N291D, D293A, Q361D, D358N (protein)
chain: AAPTAYTPLDVAQAYQFPEGLDGQGQCIAIIELGGGYDEASLAQYFASLGVPAPQVVSVSVDGASNQPTGDPSGPDGEVELDIEVAGALAPGAKFAVYFAPDTAAGFLDAITTAIHDPTLKPSVVSISWGGPEDSWTSAAIAAMNRAFLDAAALGVTVLAAAGDSGSTNGEDDGLYHVDFPAASPYVLACGGTRLVASGGRIAQETVWNDGPDGGATGGGVSRIFPLPAWQEHANVPPSANPGASSGRGVPDLAGNADPATGYEVVIDGEATVIGGTSAVAPLFAALVARINQKLGKAVGYLNPTLYQLPADVFHDITEGNNDIANRAQIYQAGPGWDPCTGLGSPIGVRLLQALLPSASQPQPGSTENLYFQSGALEHHHHHH
B5: Kumamolisin-As N291D, D293A (protein)
chain: AAPTAYTPLDVAQAYQFPEGLDGQGQCIAIIELGGGYDEASLAQYFASLGVPAPQVVSVSVDGASNQPTGDPSGPDGEVELDIEVAGALAPGAKFAVYFAPDTAAGFLDAITTAIHDPTLKPSVVSISWGGPEDSWTSAAIAAMNRAFLDAAALGVTVLAAAGDSGSTDGEQDGLYHVDFPAASPYVLACGGTRLVASGGRIAQETVWNDGPDGGATGGGVSRIFPLPAWQEHANVPPSANPGASSGRGVPDLAGNADPATGYEVVIDGEATVIGGTSAVAPLFAALVARINQKLGKAVGYLNPTLYQLPADVFHDITEGNNDIANRAQIYQAGPGWDPCTGLGSPIGVRLLQALLPSASQPQPGSTENLYFQSGALEHHHHHH
B6: Kumamolisin-As N291D, D293A, D358G, Q361D (protein)
chain: AAPTAYTPLDVAQAYQFPEGLDGQGQCIAIIELGGGYDEASLAQYFASLGVPAPQVVSVSVDGASNQPTGDPSGPDGEVELDIEVAGALAPGAKFAVYFAPDTAAGFLDAITTAIHDPTLKPSVVSISWGGPEDSWTSAAIAAMNRAFLDAAALGVTVLAAAGDSGSTGGEDDGLYHVDFPAASPYVLACGGTRLVASGGRIAQETVWNDGPDGGATGGGVSRIFPLPAWQEHANVPPSANPGASSGRGVPDLAGNADPATGYEVVIDGEATVIGGTSAVAPLFAALVARINQKLGKAVGYLNPTLYQLPADVFHDITEGNNDIANRAQIYQAGPGWDPCTGLGSPIGVRLLQALLPSASQPQPGSTENLYFQSGALEHHHHHH
B7: Kumamolisin-As N291D, D358N (protein)
chain: AAPTAYTPLDVAQAYQFPEGLDGQGQCIAIIELGGGYDEASLAQYFASLGVPAPQVVSVSVDGASNQPTGDPSGPDGEVELDIEVAGALAPGAKFAVYFAPDTDAGFLDAITTAIHDPTLKPSVVSISWGGPEDSWTSAAIAAMNRAFLDAAALGVTVLAAAGDSGSTNGEQDGLYHVDFPAASPYVLACGGTRLVASGGRIAQETVWNDGPDGGATGGGVSRIFPLPAWQEHANVPPSANPGASSGRGVPDLAGNADPATGYEVVIDGEATVIGGTSAVAPLFAALVARINQKLGKAVGYLNPTLYQLPADVFHDITEGNNDIANRAQIYQAGPGWDPCTGLGSPIGVRLLQALLPSASQPQPGSTENLYFQSGALEHHHHHH
B8: Kumamolisin-As N291D, Q361D, D358G (protein)
chain: AAPTAYTPLDVAQAYQFPEGLDGQGQCIAIIELGGGYDEASLAQYFASLGVPAPQVVSVSVDGASNQPTGDPSGPDGEVELDIEVAGALAPGAKFAVYFAPDTDAGFLDAITTAIHDPTLKPSVVSISWGGPEDSWTSAAIAAMNRAFLDAAALGVTVLAAAGDSGSTGGEDDGLYHVDFPAASPYVLACGGTRLVASGGRIAQETVWNDGPDGGATGGGVSRIFPLPAWQEHANVPPSANPGASSGRGVPDLAGNADPATGYEVVIDGEATVIGGTSAVAPLFAALVARINQKLGKAVGYLNPTLYQLPADVFHDITEGNNDIANRAQIYQAGPGWDPCTGLGSPIGVRLLQALLPSASQPQPGSTENLYFQSGALEHHHHHH
B9: Kumamolisin-As N291D, G319S, D358G, Q361D, D368H (protein)
chain: AAPTAYTPLDVAQAYQFPEGLDGQGQCIAIIELGGGYDEASLAQYFASLGVPAPQVVSVSVDGASNQPTGDPSGPDGEVELDIEVAGALAPGAKFAVYFAPDTDAGFLDAITTAIHDPTLKPSVVSISWSGPEDSWTSAAIAAMNRAFLDAAALGVTVLAAAGDSGSTGGEDDGLYHVHFPAASPYVLACGGTRLVASGGRIAQETVWNDGPDGGATGGGVSRIFPLPAWQEHANVPPSANPGASSGRGVPDLAGNADPATGYEVVIDGEATVIGGTSAVAPLFAALVARINQKLGKAVGYLNPTLYQLPADVFHDITEGNNDIANRAQIYQAGPGWDPCTGLGSPIGVRLLQALLPSASQPQPGSTENLYFQSGALEHHHHHH
B10: Kumamolisin-As N291D, D293A, D358N (protein)
chain: AAPTAYTPLDVAQAYQFPEGLDGQGQCIAIIELGGGYDEASLAQYFASLGVPAPQVVSVSVDGASNQPTGDPSGPDGEVELDIEVAGALAPGAKFAVYFAPDTAAGFLDAITTAIHDPTLKPSVVSISWGGPEDSWTSAAIAAMNRAFLDAAALGVTVLAAAGDSGSTNGEQDGLYHVDFPAASPYVLACGGTRLVASGGRIAQETVWNDGPDGGATGGGVSRIFPLPAWQEHANVPPSANPGASSGRGVPDLAGNADPATGYEVVIDGEATVIGGTSAVAPLFAALVARINQKLGKAVGYLNPTLYQLPADVFHDITEGNNDIANRAQIYQAGPGWDPCTGLGSPIGVRLLQALLPSASQPQPGSTENLYFQSGALEHHHHHH
B11: Kumamolisin-As S262G, T292S, N291D, G319S, D358G, D368H (protein)
chain: AAPTAYTPLDVAQAYQFPEGLDGQGQCIAIIELGGGYDEASLAQYFASLGVPAPQVVSVSVDGASNQPTGDPGGPDGEVELDIEVAGALAPGAKFAVYFAPDSDAGFLDAITTAIHDPTLKPSVVSISWSGPEDSWTSAAIAAMNRAFLDAAALGVTVLAAAGDSGSTGGEQDGLYHVHFPAASPYVLACGGTRLVASGGRIAQETVWNDGPDGGATGGGVSRIFPLPAWQEHANVPPSANPGASSGRGVPDLAGNADPATGYEVVIDGEATVIGGTSAVAPLFAALVARINQKLGKAVGYLNPTLYQLPADVFHDITEGNNDIANRAQIYQAGPGWDPCTGLGSPIGVRLLQALLPSASQPQPGSTENLYFQSGALEHHHHHH
B12: Kumamolisin-As N291D, D293A, G319S, D358G, Q361D, D368H (protein)
chain: AAPTAYTPLDVAQAYQFPEGLDGQGQCIAIIELGGGYDEASLAQYFASLGVPAPQVVSVSVDGASNQPTGDPSGPDGEVELDIEVAGALAPGAKFAVYFAPDTAAGFLDAITTAIHDPTLKPSVVSISWSGPEDSWTSAAIAAMNRAFLDAAALGVTVLAAAGDSGSTGGEDDGLYHVHFPAASPYVLACGGTRLVASGGRIAQETVWNDGPDGGATGGGVSRIFPLPAWQEHANVPPSANPGASSGRGVPDLAGNADPATGYEVVIDGEATVIGGTSAVAPLFAALVARINQKLGKAVGYLNPTLYQLPADVFHDITEGNNDIANRAQIYQAGPGWDPCTGLGSPIGVRLLQALLPSASQPQPGSTENLYFQSGALEHHHHHH
B13: Kumamolisin-As T292S, N291D, G319S, D358G, D368H (protein)
chain: AAPTAYTPLDVAQAYQFPEGLDGQGQCIAIIELGGGYDEASLAQYFASLGVPAPQVVSVSVDGASNQPTGDPSGPDGEVELDIEVAGALAPGAKFAVYFAPDSDAGFLDAITTAIHDPTLKPSVVSISWSGPEDSWTSAAIAAMNRAFLDAAALGVTVLAAAGDSGSTGGEQDGLYHVHFPAASPYVLACGGTRLVASGGRIAQETVWNDGPDGGATGGGVSRIFPLPAWQEHANVPPSANPGASSGRGVPDLAGNADPATGYEVVIDGEATVIGGTSAVAPLFAALVARINQKLGKAVGYLNPTLYQLPADVFHDITEGNNDIANRAQIYQAGPGWDPCTGLGSPIGVRLLQALLPSASQPQPGSTENLYFQSGALEHHHHHH
B14: Kumamolisin-As N291D, G319S, S354N, D358G, Q361D, D368H (protein)
chain: AAPTAYTPLDVAQAYQFPEGLDGQGQCIAIIELGGGYDEASLAQYFASLGVPAPQVVSVSVDGASNQPTGDPSGPDGEVELDIEVAGALAPGAKFAVYFAPDTDAGFLDAITTAIHDPTLKPSVVSISWSGPEDSWTSAAIAAMNRAFLDAAALGVTVLAAAGDNGSTGGEDDGLYHVHFPAASPYVLACGGTRLVASGGRIAQETVWNDGPDGGATGGGVSRIFPLPAWQEHANVPPSANPGASSGRGVPDLAGNADPATGYEVVIDGEATVIGGTSAVAPLFAALVARINQKLGKAVGYLNPTLYQLPADVFHDITEGNNDIANRAQIYQAGPGWDPCTGLGSPIGVRLLQALLPSASQPQPGSTENLYFQSGALEHHHHHH

Molecular target: T1, fluorescently quenched α-gliadin hexapeptide analogue QXL520-PQPQLP-K(5-FAM)-NH2
T1 chain: PQPQLP

Q: With B1 as the protein, how does the Fold Change in Activity of PQ Hydrolysis Relative to Wild Type Kumamolysin-As read?
A: 7.5 fold

Q: How did the Fold Change in Activity of PQ Hydrolysis Relative to Wild Type Kumamolysin-As turn out when B2 was run?
A: 9 fold

Q: For B3, which Fold Change in Activity of PQ Hydrolysis Relative to Wild Type Kumamolysin-As is on record?
A: 10 fold

Q: B4 was tested. Which Fold Change in Activity of PQ Hydrolysis Relative to Wild Type Kumamolysin-As did it give?
A: 14.8 fold

Q: Which Fold Change in Activity of PQ Hydrolysis Relative to Wild Type Kumamolysin-As does the source give for B5 here?
A: 15 fold

Q: For B6, which Fold Change in Activity of PQ Hydrolysis Relative to Wild Type Kumamolysin-As is on record?
A: 15 fold

Q: For B7, which Fold Change in Activity of PQ Hydrolysis Relative to Wild Type Kumamolysin-As is on record?
A: 18.9 fold

Q: For B8, which Fold Change in Activity of PQ Hydrolysis Relative to Wild Type Kumamolysin-As is on record?
A: 20 fold

Q: For B9, which Fold Change in Activity of PQ Hydrolysis Relative to Wild Type Kumamolysin-As is on record?
A: 23.1 fold

Q: How did the Fold Change in Activity of PQ Hydrolysis Relative to Wild Type Kumamolysin-As turn out when B10 was run?
A: 24 fold

Q: With B11 as the protein, how does the Fold Change in Activity of PQ Hydrolysis Relative to Wild Type Kumamolysin-As read?
A: 29 fold

Q: Which Fold Change in Activity of PQ Hydrolysis Relative to Wild Type Kumamolysin-As does the source give for B12 here?
A: 40.9 fold

Q: B13 was tested. Which Fold Change in Activity of PQ Hydrolysis Relative to Wild Type Kumamolysin-As did it give?
A: 49 fold

Q: With B14 as the protein, how does the Fold Change in Activity of PQ Hydrolysis Relative to Wild Type Kumamolysin-As read?
A: 50 fold
